According to US20080286275A1 (ISTITUTO DI RICERCHE DI BIOLOGIA MOLECOLARE P ANGELETTI S P …, published 2008):

T1: human scavenger receptor class B type I (SR-B1) (human, UniProt Q8WTV0 1-467)
T1 construct: The same entry is used for all three; also called SR-BI; SR-B1 receptor
T1 sequence: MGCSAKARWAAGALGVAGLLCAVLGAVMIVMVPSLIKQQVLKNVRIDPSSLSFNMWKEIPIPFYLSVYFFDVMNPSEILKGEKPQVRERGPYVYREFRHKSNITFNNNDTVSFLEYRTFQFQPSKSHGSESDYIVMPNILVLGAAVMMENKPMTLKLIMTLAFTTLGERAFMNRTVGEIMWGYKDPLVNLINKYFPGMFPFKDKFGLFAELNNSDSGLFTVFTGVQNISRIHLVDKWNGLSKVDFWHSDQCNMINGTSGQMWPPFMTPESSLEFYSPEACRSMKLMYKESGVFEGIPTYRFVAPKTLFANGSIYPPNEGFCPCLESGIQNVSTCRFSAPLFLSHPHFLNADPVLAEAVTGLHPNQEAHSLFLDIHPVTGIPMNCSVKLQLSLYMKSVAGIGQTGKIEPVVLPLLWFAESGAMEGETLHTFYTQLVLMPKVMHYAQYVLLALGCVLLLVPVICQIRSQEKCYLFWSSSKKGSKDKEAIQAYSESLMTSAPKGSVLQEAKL

B1: single-chain antibody of SEQ ID NO: 3 (scFv)
scFv: EVQLVETGAEVKKPGSSVKVSCKASGDTLSSHAIIWVRQAPGQGLEWMGGIIPIFRTVNYAQKFQGRVTITADDSTSTAYMELNDLRSEDTAVYYCAKTLNEGLPWDYWGQGTLVTVSSGGGGSGGGGSGGGGSAQSVLTQPPGASGAPGQRVTISCSGDSSNIESYAVNWYQQVPGMAPKLLIYRDNQRPSGVPDRFSGSRSGTSASLAISGLQSEDEADYYCGSWDDNLNGPTFGGGTKVTVL
notes: VH-linker(Ser/Gly)-VL from the CAT phage library CS, produced outside the phage context
B2: IgG4 molecule containing SEQ ID NO: 2 variable regions (antibody, V domains shown)
VH: QVQLQESGPGLVKPSETLSLNCTVSGGSISSSSYYWGWIRQPPGKGLEWIGSVYYTGNTYYNPSLKSRVTMSVDTSKNQFSLKLNSVTAADTAVYYCARHVLGGGWEVSQRFDYWGRGTLVTVSS
VL: not shown
notes: The primers may have added amino acids
B3: single-chain antibody of SEQ ID NO: 2 (scFv)
scFv: QVQLQESGPGLVKPSETLSLNCTVSGGSISSSSYYWGWIRQPPGKGLEWIGSVYYTGNTYYNPSLKSRVTMSVDTSKNQFSLKLNSVTAADTAVYYCARHVLGGGWEVSQRFDYWGRGTLVTVSSGGGGSGGGGSGGGGSAQSVLTQPPSASGTPGQRVTISCSGSSSNIGSNPVNWYQQLPGTAPKLLIHTNNQRPSGVPDRFSGSKSGTSASLAISGLLSEDEADYYCAAWDDSLNAYVFGTGTKVTVL
notes: VH-linker(Ser/Gly)-VL from the CAT phage library CS, produced outside the phage context; also called scFVC11
B4: IgG4 molecule containing SEQ ID NO: 4 variable regions (antibody, V domains shown)
VH: EVQLVQSGAEVRKPGTAVKISCKVAGDTFTDYFIYWLQQAPGKGPEWMGLIDPKDAQTIYAEKFQGRVAITADTSTDTAYMELSSLKSEDTAVYYCATDSVGSAGFDVWGQGTLVTVSS
VL: LPVLTQPPSASGAPGQRVTFSCSGSGSNIGSYTVNWYQQLPGAAPRLLMHTTDQRASGVPDRFSGSKSGTSASLAITGLQSEDEADYFCAAWDDSLDGPVFGGGTKLTVL
notes: as for B2
B5: single-chain antibody of SEQ ID NO: 4 (scFv)
scFv: EVQLVQSGAEVRKPGTAVKISCKVAGDTFTDYFIYWLQQAPGKGPEWMGLIDPKDAQTIYAEKFQGRVAITADTSTDTAYMELSSLKSEDTAVYYCATDSVGSAGFDVWGQGTLVTVSSGGGGSGGGGSGGGGSALPVLTQPPSASGAPGQRVTFSCSGSGSNIGSYTVNWYQQLPGAAPRLLMHTTDQRASGVPDRFSGSKSGTSASLAITGLQSEDEADYFCAAWDDSLDGPVFGGGTKLTVL
notes: as for B1
B6: single-chain antibody of SEQ ID NO: 1 (scFv)
scFv: EVQLVQSGAEVRKPGATVKISCKLTGDTFTDYFIFWLQLAPGKGLQWMGLIDPKDAQTIYAEKFQGRVAITADTSTDTAYMEVSSLRSEDTAVYYCATDSVGAAGFDVWGRGTMVTVSSGGGGSGGGGSGGGGSALPVLTQPPSASGAPGQRVTFSCSGSGSNIGSYTVNWYQQLPGAAPRLLMHTTDQRASGAPDRFSGSKSGTSASLAITGLQSEDEADYFCAAWDDSLDGPVFGGGTKLTVL
notes: as for B1

Legend:
[1] = target: T1, human scavenger receptor class B type I …; experiment: FACS competition on HepG2 cells, scFv concentration varied, competitor soluble E2
[2] = target: T1, human scavenger receptor class B type I …; experiment: FACS competition on Cho7s cells expressing human SR-B1, IgG concentration varied (60-12-2.4 µg/ml), competitor His-tagged soluble E2

| Binder | binding result [1] | binding result [2] |
| --- | --- | --- |
| B1 | binds |  |
| B2 |  | binds |
| B3 | binds |  |
| B4 |  | binds |
| B5 | binds |  |
| B6 | binds |  |
